Results: patent US6335176B1, “Incorporation of phosphorylation sites” (Pharmacopeia, Inc., priority 1998, dated 2002)
One block for each molecule: values may come before it. Bridge positions count the residues as written; N and C are the ends. Square brackets hold non-standard residues; d marks the D form. Ends that are not written are not given here. I, II: the chains in the order shown. pS = N[C@@H](COP(=O)(O)O)C(=O)O

What was measured:
EpoR-Fc = target: T1, EpoR-Fc (Homo sapiens, UniProt P19235); assay: Saturation binding of Epo-Fc-[33P]phosphopeptide A to EpoR-Fc surface-coated plates
T1 construct: containing the extracellular domain of the erythropoietin receptor fused to the Fc region of human IgG
T1 sequence (P19235 25-250 limits assumed): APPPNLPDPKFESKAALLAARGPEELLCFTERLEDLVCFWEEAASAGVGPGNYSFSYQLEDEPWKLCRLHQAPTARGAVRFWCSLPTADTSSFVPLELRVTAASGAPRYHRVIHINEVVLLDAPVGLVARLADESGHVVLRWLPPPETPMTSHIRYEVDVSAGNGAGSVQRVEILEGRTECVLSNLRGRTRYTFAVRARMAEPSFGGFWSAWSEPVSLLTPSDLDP
Protocol: (§1) Ligand Binding Assays in Elisa Plate Format. Costar EIA 96-well microtiter plates (assay plates) were coated with 40 ul/well of a solution of anchoring antibody (˜1-5 ug/ml) or binding protein (0.1-0.5 ug/ml) in TBS and incubated overnight at 4° C. Plates were then blocked with 80 ul/well of 1% BSA/TBS for 30 min. Following removal of the blocking protein, 40 ul/well of receptor or receptor fusion protein (0.1-0.5 ug/ml) was added to the plate and incubated at ambient temperature for one hr. if an anchoring antibody step was used. The assay plate was then washed with TBS/0.01% BSA and 40 ul/well ligand at indicated concentrations was added. The assay plate was allowed to incubate at ambient temp. for ˜1-3 hr. with shaking and then washed three times with TBS/0.01% Tween 20 using a SkanWasher300 plate washer (Skatron, Sterling, Va.). Radiolabel was detected by the addition of 80 ul/well of Optiphase (Wallac, Turku, Finland) and the assay plate counted on a Wallace MicroBeta scintillation counter.
The cytokine receptor for erythropoietin was studied as a recombinant soluble Fc-fusion protein containing the extracellular domain of the erythropoietin receptor fused to the Fc region of human IgG. The ligand for this receptor, erythropoietin (Epo) was also prepared as an Fc-fusion, specifically as a fusion to the Fc region of mouse IgG. […]

CXC2 receptor = target: T2, CXC2 receptor (Homo sapiens, UniProt P25025); assay: Binding of IL8-[33P]phosphopeptide A to CXC2 receptors on CHO cells
T2 construct: expressed in transfected cells; host or cells: CHO cells
T2 sequence (P25025 1-360): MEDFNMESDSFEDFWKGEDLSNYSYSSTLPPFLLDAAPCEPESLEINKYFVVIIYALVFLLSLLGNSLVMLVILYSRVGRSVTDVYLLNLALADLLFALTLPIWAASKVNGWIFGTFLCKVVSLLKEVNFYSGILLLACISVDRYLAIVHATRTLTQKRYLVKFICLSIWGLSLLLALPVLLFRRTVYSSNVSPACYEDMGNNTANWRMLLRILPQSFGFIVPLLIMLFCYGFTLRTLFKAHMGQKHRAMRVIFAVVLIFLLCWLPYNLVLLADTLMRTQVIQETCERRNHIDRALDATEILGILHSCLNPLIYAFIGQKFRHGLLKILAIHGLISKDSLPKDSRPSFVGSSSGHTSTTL
Protocol: (§2) Ligand Binding Assays using Cells or Membranes. Cultured cells expressing the receptor of interest were suspended to ˜1.6×10^6 per ml in DMEM containing 0.1% FBS. 100 ul aliquots were incubated in a 96-well U-bottom polypropylene microtiter plate (assay plate) containing the indicated ligands. After the appropriate incubation time (˜1-3 hrs) cells were transferred to 1.5 ml eppendorf tubes and centrifuged at 2000 rpm (358×g) for 2 min at 6° C., supernatants aspirated and cells resuspended in 1 ml cell media and centrifuged again. The washed cells were resuspended in 20 ul of cell media and transferred to a microtiter plate, 80 ul/well of Optiphase® (Wallac, Turku, Finland) scintillation cocktail added and plates counted in a Wallac MicroBeta scintillation counter. For cells or membranes harvested by filtration, transfers from the assay plate were made directly to a Millipore 1.2 um GF/C filter plate treated or untreated with 0.3% PEI. Wells were washed with DMEM (3×100 ul) and a final wash with 100 ul water. Scintillation cocktail was added as described above.
(§3) Several ligands for commonly studied receptor families, G protein-coupled receptors (GPCRs) and cytokine receptors were labeled using the reagent of the invention. […]

NK2 receptor = target: T3, NK2 receptor (Rattus norvegicus, UniProt P16610); assay: Binding of NKA-[33P]phosphopeptide A to NK2 receptors on CHO cells (whole cell)
T3 construct: expressed in transfected cells; host or cells: CHO cells
T3 sequence (P16610 1-390): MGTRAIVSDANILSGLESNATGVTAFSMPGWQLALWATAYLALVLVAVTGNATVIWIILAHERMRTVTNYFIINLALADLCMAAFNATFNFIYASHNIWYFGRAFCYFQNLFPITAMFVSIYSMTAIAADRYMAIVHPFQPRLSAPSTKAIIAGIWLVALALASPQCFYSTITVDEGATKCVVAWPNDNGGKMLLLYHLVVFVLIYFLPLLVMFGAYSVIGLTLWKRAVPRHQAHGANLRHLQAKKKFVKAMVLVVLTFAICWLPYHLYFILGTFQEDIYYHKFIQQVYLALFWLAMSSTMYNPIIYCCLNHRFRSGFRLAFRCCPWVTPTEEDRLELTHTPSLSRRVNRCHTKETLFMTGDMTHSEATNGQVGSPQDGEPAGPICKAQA
Protocol: as §2, §3

ObR-Fc = target: T4, ObR-Fc (Homo sapiens, UniProt P48357); assay: Saturation binding of leptin-[33P]phosphopeptide A to ObR-Fc surface-coated plates; settings: at the highest concentration of labeled ligand
T4 construct: containing the extracellular domain of the ObR fused to the Fc region of human IgG; purchased R&D Systems, Minneapolis, Minn
T4 sequence (P48357 22-839 limits assumed): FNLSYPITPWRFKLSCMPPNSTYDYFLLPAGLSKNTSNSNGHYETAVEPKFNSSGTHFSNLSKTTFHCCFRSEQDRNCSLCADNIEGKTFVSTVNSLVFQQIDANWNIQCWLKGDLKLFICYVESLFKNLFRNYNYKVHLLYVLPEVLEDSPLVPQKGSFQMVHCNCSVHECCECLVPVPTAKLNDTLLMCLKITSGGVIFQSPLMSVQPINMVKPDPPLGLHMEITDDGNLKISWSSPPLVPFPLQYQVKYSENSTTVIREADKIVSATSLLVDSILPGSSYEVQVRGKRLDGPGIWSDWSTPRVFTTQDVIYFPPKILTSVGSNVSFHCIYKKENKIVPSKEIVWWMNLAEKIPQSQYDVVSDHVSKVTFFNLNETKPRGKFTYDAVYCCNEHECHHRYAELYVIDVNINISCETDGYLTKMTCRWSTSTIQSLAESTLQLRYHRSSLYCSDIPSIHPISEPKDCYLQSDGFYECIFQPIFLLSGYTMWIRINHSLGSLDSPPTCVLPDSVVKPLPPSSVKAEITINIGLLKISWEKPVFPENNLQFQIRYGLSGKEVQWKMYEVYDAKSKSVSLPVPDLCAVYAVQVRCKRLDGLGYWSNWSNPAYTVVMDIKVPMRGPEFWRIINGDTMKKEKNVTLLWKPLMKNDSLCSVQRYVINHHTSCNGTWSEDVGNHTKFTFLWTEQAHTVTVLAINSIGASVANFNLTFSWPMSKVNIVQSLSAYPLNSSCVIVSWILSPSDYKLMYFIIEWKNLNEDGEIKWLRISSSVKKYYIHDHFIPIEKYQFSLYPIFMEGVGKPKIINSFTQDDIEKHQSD
Protocol: as §1
The cytokine receptor for leptin, the Ob receptor (ObR), was studied as a soluble Fc-fusion protein containing the extracellular domain of the ObR fused to the Fc region of human IgG (R&D Systems, Minneapolis, Minn.). The ligand for this receptor, leptin (R&D Systems) was phosphorylated according to the method of invention as described above.

[1] = target: NK2 receptor recombinantly expressed in CHO cells; assay: saturation radioligand binding, CHO cells, 160,000 cells/assay (FIG. 9A)
[2] = saturation binding, 160,000 cells/assay

Sequence of NK2 receptor recombinantly expressed in CHO cells (P21452 whole entry): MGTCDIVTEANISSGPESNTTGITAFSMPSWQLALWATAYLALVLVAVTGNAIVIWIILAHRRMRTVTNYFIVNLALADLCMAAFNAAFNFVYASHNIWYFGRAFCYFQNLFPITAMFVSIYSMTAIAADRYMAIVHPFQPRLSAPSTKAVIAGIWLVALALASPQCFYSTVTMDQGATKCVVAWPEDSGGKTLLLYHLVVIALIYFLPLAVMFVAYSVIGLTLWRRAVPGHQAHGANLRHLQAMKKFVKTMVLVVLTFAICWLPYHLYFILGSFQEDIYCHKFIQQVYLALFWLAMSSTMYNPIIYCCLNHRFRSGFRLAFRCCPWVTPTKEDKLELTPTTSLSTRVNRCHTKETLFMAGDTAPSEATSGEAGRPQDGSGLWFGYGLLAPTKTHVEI

- specific binding to its receptor (CXC2 receptor; 33P-labeled ligand, FIG. 8): bound specifically
- Bmax (CXC2 receptor; [2]): 110,000 receptors/cell
Molecule: N-α-acetyl-S-[IL8-amido-(6-aminothioacetyl)hexonyl]cys-ser-arg-arg-ala-[^33PO3]phosphoser-val-tyr-amide1-4 [IL8-[^33P]phosphopeptide A]

- saturation binding (ObR-Fc): Binding was detected
Molecule: N-α-acetyl-S-[leptin-amido-)6-aminothioacetyl)hexonyl]cys-ser-arg-arg-ala-[^33PO3]phosphoser-val-tyr-amide1-2 [leptin [^33P]phosphopeptide A]

The remaining lines, values behind:

Molecule: N-α-acetyl-S-[Epo-Fc-8-amido-(6-aminothioacetyl)hexonyl]cys-ser-arg-arg-ala-[^33PO3]phosphoser-val-tyr-amide [Epo-Fc-[^33P]phosphopeptide A]
- amount detected at the highest concentration of labeled ligand (EpoR-Fc): ~20 Fmol/well

Molecule: N-α-acetyl-S-[NKA-lys2N^e-amido-(6-aminothioacetyl)hexonyl]cys-ser-arg-arg-ala-[^33PO3]phosphoser-val-tyr-amide (peptide 1 HKTRSFVGLM-NH2; peptide 2 Ac-CSRRASVY-NH2; bridge I:2-II:1; not fully specified (some residues, bridges); printed as N-α-acetyl-S-[NKA-lys2N^e-amido-(6-aminothioacetyl)hexonyl]cys-ser-arg-arg-ala-[^33PO3]phosphoser-val-tyr-amide; also: phosphoserine carries [33P]phosphate label) [NKA-[^33P]phosphopeptide A]
- specific binding to its receptor (NK2 receptor; 33P-labeled ligand, FIG. 8): bound specifically
- Bmax (NK2 receptor; [2]): 700,000 receptors/cell

B1: Neurokinin A-[^33PO3]peptide A conjugate (NKA-lys2N^e-[^33PO3]peptide A) (peptide)
peptide 1: HKTRSFVGLM-NH2
peptide 2: Ac-CSRRA[pS]VY-NH2
modifications: bridge I:2-II:1; not fully specified (some residues, bridges); printed as N-&agr,-acetyl-S-[NKA-lys2Ne-amido-(6-aminothioacetyl)hexonyl]cys-ser-arg-arg-ala-[33PO3]phosphoser-val-tyr-amide; also: 33P-labelled phosphate on phosphoserine of chain 2
- Bmax (receptors/cell) [1]: 700000
